# Data taken from paper PMC7367873, “Dissecting the sequence determinants for dephosphorylation by the catalytic subunits of phosphatases PP1 and PP2A” (Nature Communications, 2020).
# Legend:
# [1] = system: GFP-14-3-3β; assay: GFP-14-3-3β co-IP with LC-MS/MS, untreated GFP-14-3-3β versus GFP control (14-3-3 interactome); format: binding, human; conditions: label-free quantification, 3 replicates each
# [2] = system: GFP-14-3-3β and its binding proteins; assay: GFP-14-3-3β co-IP with LC-MS/MS label-free quantification, untreated versus PP1c-treated; design: species or system human; conditions: label-free quantification, 3 replicates each
# [3] = GFP-14-3-3β co-IP LC-MS/MS, untreated vs GFP, student's t-test
# [4] = GFP-14-3-3β co-IP LC-MS/MS, PP1 vs untreated, student's t-test
"Difference (log2), PP1 vs untreated [2, 4]","Difference (log2), PP1 vs untreated ([2]; log2 difference, pairwise comparison PP1 vs untreated)",Molecule,"Difference (log2), untreated vs GFP [1, 3]","Difference (log2), untreated vs GFP ([1]; log2 difference, pairwise comparison untreated vs GFP)"
-0.5044 log2,–,"HNRNPH1 (protein, UniProt P31943 1-449, looked up) Heterogeneous nuclear …: MMLGTEGGEGFVVKVRGLPWSCSADEVQRFFSDCKIQNGAQGIRFIYTREGRPSGEAFVELESEDEVKLALKKDRETMGHRYVEVFKSNNVEMDWVLKHTGPNSPDTANDGFVRLRGLPFGCSKEEIVQFFSGLEIVPNGITLPVDFQGRSTGEAFVQFASQEIAEKALKKHKERIGHRYIEIFKSSRAEVRTHYDPPRKLMAMQRPGPYDRPGAGRGYNSIGRGAGFERMRRGAYGGGYGGYDDYNGYNDGYGFGSDRFGRDLNYCFSGMSDHRYGDGGSTFQSTTGHCVHMRGLPYRATENDIYNFFSPLNPVRVHIEIGPDGRVTGEADVEFATHEDAVAAMSKDKANMQHRYVELFLNSTAGASGGAYEHRYVELFLNSTAGASGGAYGSQMMGGMGLSNQSSYGGPASQQLSGGYGGGYGGQSSMSGYDQVLQENSSDFQSNIA",0.1701 log2,–
–,1.673,"TCF25 (protein, UniProt Q9BQ70 1-676, looked up) Ribosome quality control …: MSRRALRRLRGEQRGQEPLGPGALHFDLRDDDDAEEEGPKRELGVRRPGGAGKEGVRVNNRFELINIDDLEDDPVVNGERSGCALTDAVAPGNKGRGQRGNTESKTDGDDTETVPSEQSHASGKLRKKKKKQKNKKSSTGEASENGLEDIDRILERIEDSTGLNRPGPAPLSSRKHVLYVEHRHLNPDTELKRYFGARAILGEQRPRQRQRVYPKCTWLTTPKSTWPRYSKPGLSMRLLESKKGLSFFAFEHSEEYQQAQHKFLVAVESMEPNNIVVLLQTSPYHVDSLLQLSDACRFQEDQEMARDLVERALYSMECAFHPLFSLTSGACRLDYRRPENRSFYLALYKQMSFLEKRGCPRTALEYCKLILSLEPDEDPLCMLLLIDHLALRARNYEYLIRLFQEWEAHRNLSQLPNFAFSVPLAYFLLSQQTDLPECEQSSARQKASLLIQQALTMFPGVLLPLLESCSVRPDASVSSHRFFGPNAEISQPPALSQLVNLYLGRSHFLWKEPATMSWLEENVHEVLQAVDAGDPAVEACENRRKVLYQRAPRNIHRHVILSEIKEAVAALPPDVTTQSVMGFDPLPPSDTIYSYVRPERLSPISHGNTIALFFRSLLPNYTMEGERPEEGVAGGLNRNQGLNRLMLAVRDMMANFHLNDLEAPHEDDAEGEGEWD",–,-0.2721
-0.3964 log2,–,"IGHMBP2 (protein, UniProt P38935 2-993, looked up) DNA-binding protein SMUBP-2: ASAAVESFVTKQLDLLELERDAEVEERRSWQENISLKELQSRGVCLLKLQVSSQRTGLYGRLLVTFEPRRYGSAAALPSNSFTSGDIVGLYDAANEGSQLATGILTRVTQKSVTVAFDESHDFQLSLDRENSYRLLKLANDVTYRRLKKALIALKKYHSGPASSLIEVLFGRSAPSPASEIHPLTFFNTCLDTSQKEAVLFALSQKELAIIHGPPGTGKTTTVVEIILQAVKQGLKVLCCAPSNIAVDNLVERLALCKQRILRLGHPARLLESIQQHSLDAVLARSDSAQIVADIRKDIDQVFVKNKKTQDKREKSNFRNEIKLLRKELKEREEAAMLESLTSANVVLATNTGASADGPLKLLPESYFDVVVIDECAQALEASCWIPLLKARKCILAGDHKQLPPTTVSHKAALAGLSLSLMERLAEEYGARVVRTLTVQYRMHQAIMRWASDTMYLGQLTAHSSVARHLLRDLPGVAATEETGVPLLLVDTAGCGLFELEEEDEQSKGNPGEVRLVSLHIQALVDAGVPARDIAVVSPYNLQVDLLRQSLVHRHPELEIKSVDGFQGREKEAVILSFVRSNRKGEVGFLAEDRRINVAVTRARRHVAVICDSRTVNNHAFLKTLVEYFTQHGEVRTAFEYLDDIVPENYSHENSQGSSHAATKPQGPATSTRTGSQRQEGGQEAAAPARQGRKKPAGKSLASEAPSQPSLNGGSPEGVESQDGVDHFRAMIVEFMASKKMQLEFPPSLNSHDRLRVHQIAEEHGLRHDSSGEGKRRFITVSKRAPRPRAALGPPAGTGGPAPLQPVPPTPAQTEQPPREQRGPDQPDLRTLHLERLQRVRSAQGQPASKEQQASGQQKLPEKKKKKAKGHPATDLPTEEDFEALVSAAVKADNTCGFAKCTAGVTTLGQFCQLCSRRYCLSHHLPEIHGCGERARAHARQRISREGVLYAGSGTKNGSLDPAKRAQLQRRLDKKLSELSNQRTSRRKERGT",0.7737 log2,–
-0.4911 log2,–,"WDR3 (protein, UniProt Q9UNX4 1-943, looked up) WD repeat-containing protein 3: MGLTKQYLRYVASAVFGVIGSQKGNIVFVTLRGEKGRYVAVPACEHVFIWDLRKGEKILILQGLKQEVTCLCPSPDGLHLAVGYEDGSIRIFSLLSGEGNVTFNGHKAAITTLKYDQLGGRLASGSKDTDIIVWDVINESGLYRLKGHKDAITQALFLREKNLLVTSGKDTMVKWWDLDTQHCFKTMVGHRTEVWGLVLLSEEKRLITGASDSELRVWDIAYLQEIEDPEEPDPKKIKGSSPGIQDTLEAEDGAFETDEAPEDRILSCRKAGSIMREGRDRVVNLAVDKTGRILACHGTDSVLELFCILSKKEIQKKMDKKMKKARKKAKLHSSKGEEEDPEVNVEMSLQDEIQRVTNIKTSAKIKSFDLIHSPHGELKAVFLLQNNLVELYSLNPSLPTPQPVRTSRITIGGHRSDVRTLSFSSDNIAVLSAAADSIKIWNRSTLQCIRTMTCEYALCSFFVPGDRQVVIGTKTGKLQLYDLASGNLLETIDAHDGALWSMSLSPDQRGFVTGGADKSVKFWDFELVKDENSTQKRLSVKQTRTLQLDEDVLCVSYSPNQKLLAVSLLDCTVKIFYVDTLKFFLSLYGHKLPVICMDISHDGALIATGSADRNVKIWGLDFGDCHKSLFAHDDSVMYLQFVPKSHLFFTAGKDHKIKQWDADKFEHIQTLEGHHQEIWCLAVSPSGDYVVSSSHDKSLRLWERTREPLILEEEREMEREAEYEESVAKEDQPAVPGETQGDSYFTGKKTIETVKAAERIMEAIELYREETAKMKEHKAICKAAGKEVPLPSNPILMAYGSISPSAYVLEIFKGIKSSELEESLLVLPFSYVPDILKLFNEFIQLGSDVELICRCLFFLLRIHFGQITSNQMLVPVIEKLRETTISKVSQVRDVIGFNMAGLDYLKRECEAKSEVMFFADATSHLEEKKRKRKKREKLILTLT",0.8072 log2,–
-0.4623 log2,–,"LMNA (protein, UniProt P02545 1-661, looked up) Prelamin-A/C: METPSQRRATRSGAQASSTPLSPTRITRLQEKEDLQELNDRLAVYIDRVRSLETENAGLRLRITESEEVVSREVSGIKAAYEAELGDARKTLDSVAKERARLQLELSKVREEFKELKARNTKKEGDLIAAQARLKDLEALLNSKEAALSTALSEKRTLEGELHDLRGQVAKLEAALGEAKKQLQDEMLRRVDAENRLQTMKEELDFQKNIYSEELRETKRRHETRLVEIDNGKQREFESRLADALQELRAQHEDQVEQYKKELEKTYSAKLDNARQSAERNSNLVGAAHEELQQSRIRIDSLSAQLSQLQKQLAAKEAKLRDLEDSLARERDTSRRLLAEKEREMAEMRARMQQQLDEYQELLDIKLALDMEIHAYRKLLEGEEERLRLSPSPTSQRSRGRASSHSSQTQGGGSVTKKRKLESTESRSSFSQHARTSGRVAVEEVDEEGKFVRLRNKSNEDQSMGNWQIKRQNGDDPLLTYRFPPKFTLKAGQVVTIWAAGAGATHSPPTDLVWKAQNTWGCGNSLRTALINSTGEEVAMRKLVRSVTVVEDDEDEDGDDLLHHHHGSHCSSSGDPAEYNLRSRTVLCGTCGQPADKASASGSGAQVGGPISSGSSASSVTVTRSYRSVGGSGGGSFGDNLVTRSYLLGNSSPRTQSPQNC",-0.3549 log2,–
